Numbered stars: 1 amine (or outer) side, 2 acyl side, 3 side chain; on linkers, the order of the positions; unused ones are H or OH. Bridge positions count the residues as written; N and C are the ends. Side chains are listed from the residue outwards. Ends that are not written are not given here. * marks the point of attachment. C20 diacid = O=C(O)CCCCCCCCCCCCCCCCCCC(=O)*; γGlu = O=C(O)[C@H](CCC(=O)[*:2])N[*:1]

We go through six molecules from patent US20140087995A1 (published 2014).

To fix the notation:
T1: human calcitonin receptor (human, UniProt P30988 25-474)
T1 construct: whole, on cells; Assay used cell membranes, not intact cells; also called hCTR; hCT
T1 sequence (looked up): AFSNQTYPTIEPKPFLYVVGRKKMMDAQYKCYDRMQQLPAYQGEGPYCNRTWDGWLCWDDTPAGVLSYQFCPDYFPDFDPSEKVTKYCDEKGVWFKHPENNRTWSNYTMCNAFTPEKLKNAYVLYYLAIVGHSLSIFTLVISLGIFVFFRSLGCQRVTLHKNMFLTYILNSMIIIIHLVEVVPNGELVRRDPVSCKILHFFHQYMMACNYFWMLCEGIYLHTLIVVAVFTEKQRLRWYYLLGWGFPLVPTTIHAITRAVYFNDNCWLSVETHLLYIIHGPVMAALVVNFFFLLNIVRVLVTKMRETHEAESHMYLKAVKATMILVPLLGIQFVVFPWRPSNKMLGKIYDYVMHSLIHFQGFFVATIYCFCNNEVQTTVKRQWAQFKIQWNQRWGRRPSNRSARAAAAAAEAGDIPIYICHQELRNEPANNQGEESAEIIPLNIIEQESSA

T2: human amylin receptor (amylin 3(a) receptor: human calcitonin receptor with RAMP-3) (human, UniProt P30988 25-474; O60896 24-148)
T2 construct: whole, on cells; Assay used cell membranes of the Amylin 3(a)/CRE-luc BHK cells, not intact cells; also called hAmylin-R; hAmylinR
T2 sequence (looked up) 1: T1 sequence (looked up)
T2 sequence (looked up) 2: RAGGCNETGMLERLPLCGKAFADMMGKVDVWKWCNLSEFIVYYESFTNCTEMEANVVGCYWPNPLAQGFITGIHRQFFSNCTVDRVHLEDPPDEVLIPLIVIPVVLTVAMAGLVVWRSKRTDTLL

B1: N^ε1-[(4S)-4-carboxy-4-[[(4S)-4-carboxy-4-(19-carboxynonadecanoylamino)butanoyl]amino]butanoyl]-[His14,Arg17,Pro21,Pro27]-h-amylin (peptide)
peptide: K([γGlu-γGlu-C20 diacid])CNTATCATQRLAHFLRHSSPNFGAIPSSTNVGSNTY-NH2
modifications: disulfide 2-7; N-terminus assumed
SMILES: CC[C@H](C)[C@H](NC(=O)[C@H](C)NC(=O)CNC(=O)[C@H](Cc1ccccc1)NC(=O)[C@H](CC(N)=O)NC(=O)[C@@H]1CCCN1C(=O)[C@H](CO)NC(=O)[C@H](CO)NC(=O)[C@H](Cc1c[nH]cn1)NC(=O)[C@H](CCCNC(=N)N)NC(=O)[C@H](CC(C)C)NC(=O)[C@H](Cc1ccccc1)NC(=O)[C@H](Cc1c[nH]cn1)NC(=O)[C@H](C)NC(=O)[C@H](CC(C)C)NC(=O)[C@H](CCCNC(=N)N)NC(=O)[C@H](CCC(N)=O)NC(=O)[C@@H](NC(=O)[C@H](C)NC(=O)[C@@H]1CSSC[C@H](NC(=O)[C@@H](N)CCCCNC(=O)CC[C@H](NC(=O)CC[C@H](NC(=O)CCCCCCCCCCCCCCCCCCC(=O)O)C(=O)O)C(=O)O)C(=O)N[C@@H](CC(N)=O)C(=O)N[C@@H]([C@@H](C)O)C(=O)N[C@@H](C)C(=O)N[C@@H]([C@@H](C)O)C(=O)N1)[C@@H](C)O)C(=O)N1CCC[C@H]1C(=O)N[C@@H](CO)C(=O)N[C@@H](CO)C(=O)N[C@H](C(=O)N[C@@H](CC(N)=O)C(=O)N[C@H](C(=O)NCC(=O)N[C@@H](CO)C(=O)N[C@@H](CC(N)=O)C(=O)N[C@H](C(=O)N[C@@H](Cc1ccc(O)cc1)C(N)=O)[C@@H](C)O)C(C)C)[C@@H](C)O
notes: also called compound 92
B2: N^ε1-[(4S)-4-carboxy-4-[[(4S)-4-carboxy-4-(19-carboxynonadecanoylamino)butanoyl]amino]butanoyl]-[Ser14,Arg17,Pro21,Pro27,Pro34,Glu35]-h-amylin (peptide)
peptide: K([γGlu-γGlu-C20 diacid])CNTATCATQRLASFLRHSSPNFGAIPSSTNVGPETY-NH2
modifications: disulfide 2-7; N-terminus assumed
SMILES: CC[C@H](C)[C@H](NC(=O)[C@H](C)NC(=O)CNC(=O)[C@H](Cc1ccccc1)NC(=O)[C@H](CC(N)=O)NC(=O)[C@@H]1CCCN1C(=O)[C@H](CO)NC(=O)[C@H](CO)NC(=O)[C@H](Cc1c[nH]cn1)NC(=O)[C@H](CCCNC(=N)N)NC(=O)[C@H](CC(C)C)NC(=O)[C@H](Cc1ccccc1)NC(=O)[C@H](CO)NC(=O)[C@H](C)NC(=O)[C@H](CC(C)C)NC(=O)[C@H](CCCNC(=N)N)NC(=O)[C@H](CCC(N)=O)NC(=O)[C@@H](NC(=O)[C@H](C)NC(=O)[C@@H]1CSSC[C@H](NC(=O)[C@@H](N)CCCCNC(=O)CC[C@H](NC(=O)CC[C@H](NC(=O)CCCCCCCCCCCCCCCCCCC(=O)O)C(=O)O)C(=O)O)C(=O)N[C@@H](CC(N)=O)C(=O)N[C@@H]([C@@H](C)O)C(=O)N[C@@H](C)C(=O)N[C@@H]([C@@H](C)O)C(=O)N1)[C@@H](C)O)C(=O)N1CCC[C@H]1C(=O)N[C@@H](CO)C(=O)N[C@@H](CO)C(=O)N[C@H](C(=O)N[C@@H](CC(N)=O)C(=O)N[C@H](C(=O)NCC(=O)N1CCC[C@H]1C(=O)N[C@@H](CCC(=O)O)C(=O)N[C@H](C(=O)N[C@@H](Cc1ccc(O)cc1)C(N)=O)[C@@H](C)O)C(C)C)[C@@H](C)O
notes: also called compound 120
B3: N^-1-[(4S)-4-carboxy-4-(19-carboxynonadecanoylamino)butanoyl]-Gly[Arg1,His14,Arg17,Pro21,Pro27,His34]-h-amylin (peptide)
peptide: {C20 diacid-γGlu}-GRCNTATCATQRLAHFLRHSSPNFGAIPSSTNVGHNTY-NH2
modifications: disulfide 3-8
SMILES: CC[C@H](C)[C@H](NC(=O)[C@H](C)NC(=O)CNC(=O)[C@H](Cc1ccccc1)NC(=O)[C@H](CC(N)=O)NC(=O)[C@@H]1CCCN1C(=O)[C@H](CO)NC(=O)[C@H](CO)NC(=O)[C@H](Cc1c[nH]cn1)NC(=O)[C@H](CCCNC(=N)N)NC(=O)[C@H](CC(C)C)NC(=O)[C@H](Cc1ccccc1)NC(=O)[C@H](Cc1c[nH]cn1)NC(=O)[C@H](C)NC(=O)[C@H](CC(C)C)NC(=O)[C@H](CCCNC(=N)N)NC(=O)[C@H](CCC(N)=O)NC(=O)[C@@H](NC(=O)[C@H](C)NC(=O)[C@@H]1CSSC[C@H](NC(=O)[C@H](CCCNC(=N)N)NC(=O)CNC(=O)CC[C@H](NC(=O)CCCCCCCCCCCCCCCCCCC(=O)O)C(=O)O)C(=O)N[C@@H](CC(N)=O)C(=O)N[C@@H]([C@@H](C)O)C(=O)N[C@@H](C)C(=O)N[C@@H]([C@@H](C)O)C(=O)N1)[C@@H](C)O)C(=O)N1CCC[C@H]1C(=O)N[C@@H](CO)C(=O)N[C@@H](CO)C(=O)N[C@H](C(=O)N[C@@H](CC(N)=O)C(=O)N[C@H](C(=O)NCC(=O)N[C@@H](Cc1c[nH]cn1)C(=O)N[C@@H](CC(N)=O)C(=O)N[C@H](C(=O)N[C@@H](Cc1ccc(O)cc1)C(N)=O)[C@@H](C)O)C(C)C)[C@@H](C)O
notes: also called compound 100
B4: N^-1-[(4S)-4-carboxy-4-(19-carboxynonadecanoylamino)butanoyl]-Gly[Arg1,Ala14,Arg17,Pro21,Pro27,His34]-h-amylin (peptide)
peptide: {C20 diacid-γGlu}-GRCNTATCATQRLAAFLRHSSPNFGAIPSSTNVGHNTY-NH2
modifications: disulfide 3-8
SMILES: CC[C@H](C)[C@H](NC(=O)[C@H](C)NC(=O)CNC(=O)[C@H](Cc1ccccc1)NC(=O)[C@H](CC(N)=O)NC(=O)[C@@H]1CCCN1C(=O)[C@H](CO)NC(=O)[C@H](CO)NC(=O)[C@H](Cc1c[nH]cn1)NC(=O)[C@H](CCCNC(=N)N)NC(=O)[C@H](CC(C)C)NC(=O)[C@H](Cc1ccccc1)NC(=O)[C@H](C)NC(=O)[C@H](C)NC(=O)[C@H](CC(C)C)NC(=O)[C@H](CCCNC(=N)N)NC(=O)[C@H](CCC(N)=O)NC(=O)[C@@H](NC(=O)[C@H](C)NC(=O)[C@@H]1CSSC[C@H](NC(=O)[C@H](CCCNC(=N)N)NC(=O)CNC(=O)CC[C@H](NC(=O)CCCCCCCCCCCCCCCCCCC(=O)O)C(=O)O)C(=O)N[C@@H](CC(N)=O)C(=O)N[C@@H]([C@@H](C)O)C(=O)N[C@@H](C)C(=O)N[C@@H]([C@@H](C)O)C(=O)N1)[C@@H](C)O)C(=O)N1CCC[C@H]1C(=O)N[C@@H](CO)C(=O)N[C@@H](CO)C(=O)N[C@H](C(=O)N[C@@H](CC(N)=O)C(=O)N[C@H](C(=O)NCC(=O)N[C@@H](Cc1c[nH]cn1)C(=O)N[C@@H](CC(N)=O)C(=O)N[C@H](C(=O)N[C@@H](Cc1ccc(O)cc1)C(N)=O)[C@@H](C)O)C(C)C)[C@@H](C)O
B5: N^-1-[(4S)-4-carboxy-4-(19-carboxynonadecanoylamino)butanoyl]-Gly[Arg1,His14,Arg17,Pro21,Pro27,Pro34]-h-amylin (peptide)
peptide: {C20 diacid-γGlu}-GRCNTATCATQRLAHFLRHSSPNFGAIPSSTNVGPNTY-NH2
modifications: disulfide 3-8
SMILES: CC[C@H](C)[C@H](NC(=O)[C@H](C)NC(=O)CNC(=O)[C@H](Cc1ccccc1)NC(=O)[C@H](CC(N)=O)NC(=O)[C@@H]1CCCN1C(=O)[C@H](CO)NC(=O)[C@H](CO)NC(=O)[C@H](Cc1c[nH]cn1)NC(=O)[C@H](CCCNC(=N)N)NC(=O)[C@H](CC(C)C)NC(=O)[C@H](Cc1ccccc1)NC(=O)[C@H](Cc1c[nH]cn1)NC(=O)[C@H](C)NC(=O)[C@H](CC(C)C)NC(=O)[C@H](CCCNC(=N)N)NC(=O)[C@H](CCC(N)=O)NC(=O)[C@@H](NC(=O)[C@H](C)NC(=O)[C@@H]1CSSC[C@H](NC(=O)[C@H](CCCNC(=N)N)NC(=O)CNC(=O)CC[C@H](NC(=O)CCCCCCCCCCCCCCCCCCC(=O)O)C(=O)O)C(=O)N[C@@H](CC(N)=O)C(=O)N[C@@H]([C@@H](C)O)C(=O)N[C@@H](C)C(=O)N[C@@H]([C@@H](C)O)C(=O)N1)[C@@H](C)O)C(=O)N1CCC[C@H]1C(=O)N[C@@H](CO)C(=O)N[C@@H](CO)C(=O)N[C@H](C(=O)N[C@@H](CC(N)=O)C(=O)N[C@H](C(=O)NCC(=O)N1CCC[C@H]1C(=O)N[C@@H](CC(N)=O)C(=O)N[C@H](C(=O)N[C@@H](Cc1ccc(O)cc1)C(N)=O)[C@@H](C)O)C(C)C)[C@@H](C)O

One test deals with T1, human calcitonin receptor. Briefly: ratio IC50 hCTR / IC50 hAmylin-R (reference: human amylin receptor), SPA competition assays. In a few lines: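 Competition binding by SPA uses membrane preparations (35 ng/μL final) in pH 7.4 Hepes buffer with 1 mM CaCl2 and 5 mM MgCl₂. Incubation lasts 120 min at 25° C, and IC₅₀ comes from one-site fitting.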
Take B1: the “Ratio hCT/hAmylin binding” value stood at 145.
The same measure, in the same setting: next, B2: 45.3; B3: 65.3; {C20 diacid-γGlu}-GRCNTATCATQRLAAFLRHSSPNFGAIPSSTNVGPNTY-NH2 (disulfide 3-8): 26.5.
The same measure, in the same setting: under B4 stands 68.6; under B5, 36.2.

Another test addresses T1, human calcitonin receptor. Briefly: SPA competition with 125I-calcitonin on membranes of BHK cells with human calcitonin receptor (Assay VII). In a few lines: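 BHK hCTR membranes 35 ng/μL + SPA beads 0.05 mg/well; buffer 50 mM Hepes pH 7.4, 1 mM CaCl2, 5 mM MgCl₂, 0.1% OA, 0.02% Tween20. 120 min, 25° C., shaking. Scintillation count; IC50 by one-site binding competition.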
Consider B1, for which the half-inhibitory concentration (IC50) – broadly, the concentration needed to halve the response being measured – turned out to be 26 nM.
Same read-out and setting: under B2 stands 3.44 nM; under B3, 66.3 nM; under {C20 diacid-γGlu}-GRCNTATCATQRLAAFLRHSSPNFGAIPSSTNVGPNTY-NH2 (disulfide 3-8), 3 nM.
Still for that read-out and setting: under B4 stands 29.2 nM; under B5, 7.87 nM.

The target of the next test is T2, human amylin receptor (amylin 3(a) …). Briefly: SPA competition with 125I-rat amylin on membranes of BHK cells with human calcitonin receptor and RAMP-3 (Assay V). In outline:
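One-site competition analysis of SPA counts yielded IC₅₀ as a measure of affinity. Membranes were at 35 ng/μL final; incubation was 120 min at 25° C, pH 7.4.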
For B1, the IC50 came to 0.179 nM.
On the same count and under the same terms, next, B2: 0.076 nM; B3: 1.01 nM.
On the same count and under the same terms, next, {C20 diacid-γGlu}-GRCNTATCATQRLAAFLRHSSPNFGAIPSSTNVGPNTY-NH2 (disulfide 3-8): 0.114 nM.
The same measure, in the same setting: next, B4: 0.426 nM.
Consider B5, for which the IC50 was determined as 0.217 nM.
